The values that follow are results of earlier work, collected in PMC6104694.

pKd: −log10 of the molar value. Read-outs that look alike come from different tables or passages of the source.

By pKd is commonly meant the Kd on a negative log10 scale, so that one unit is a factor of ten.

Data set [1] addresses presenilin-1 C-terminal fragment 23 amino acid CTF (Homo sapiens) (UniProt P49768).
Data set [2] has the same target. The source holds these as a separate data set.

Chain of KChIP3 (calsenilin) (Q9Y2W7 whole entry): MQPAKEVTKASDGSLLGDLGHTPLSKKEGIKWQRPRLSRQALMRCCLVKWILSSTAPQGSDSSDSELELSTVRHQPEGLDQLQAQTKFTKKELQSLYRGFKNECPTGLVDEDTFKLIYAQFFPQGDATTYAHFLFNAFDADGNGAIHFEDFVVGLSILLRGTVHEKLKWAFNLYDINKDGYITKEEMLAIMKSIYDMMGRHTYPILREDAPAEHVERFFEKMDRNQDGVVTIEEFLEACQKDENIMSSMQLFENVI

Turning to “KChIP3 (calsenilin) (from UniProt Q9Y2W7)”, the negative-log Kd (pKd) was 6.22 in data set [1] and 3.74 in data set [2].
